According to patent US20250163138A1 (Alexion, published 2025):
Substitutions are numbered along the chain they refer to. Numbers in names are those of the source.

B1: LCP0115 (VHH)
VHH: EVQLVESGGGLVQAGGSLRLSCAASGRTFSGILSPYAVGWFRQAPGKGREFVSTITSGGSAIYTDSVKGRFTLSRDNAKDTVYLQMNSLKPEDTAVYYCAVRTRRYGSNLGEVPQENEYGYWGQGTQVTVSS
notes: llama anti-C5 VHH, tested as VHH-His fusion; not shown: His-tag
B2: LCP0302 (VHH)
VHH: EVQLVESGGGLVQAGGSLRLSCAASGRTFSGILSAYAVGWFRQAPGKEREFVSTITSGGSTLSADSVKGRFTLSRDNAKDTVYLQMNSLKPEDTAVYYCAVRTWPYGSNRGEVPTENEYGHWGQGTQVTVSS
notes: as for B1
B3: LCP0143 (VHH)
VHH: EVQLVESGGGLVQAGGSLRLSCAAPEMGATINVMAWYRQAPGKQRELVARLPLDNNIDYGDFAKGRFTISRDITRNTVYLQMNNLKPDDTAVYYCNVLLSRQINGAYVHWGQGTQVTVSS
notes: as for B1
B4: LCP0146 (VHH)
VHH: EVQLVESGGGLVQAGGSLRLSCAASGRAFSDYAMAWFRQAPGKEREFVAGIGWSGGDTLYADSVRGRFTNSKDNAKNRMSLQMNSLKPEDTAVYYCAARQGQYIYSSMRSDSYDYWGQGTQVTVSS
notes: as for B1
B5: LCP0136 (VHH)
VHH: EVQLVESGGGLVQPGESLRLSCAISGFAFTDVGMSWVRQAPGKGLEWVSSISSGSSITTYSDSVKGRFTISRDNARNTLFLQMNSLKPEDTAVYYCGRYYCTGLGCHPRRDSALWGQGTQVTVSS
notes: as for B1
B6: LCP0296 (VHH)
VHH: EVQLVESGGGVVQAGDSLTLTCTAPVGTISDYGMGWFRQAPGKEREFVASISWGGMWTDYADSVKGRFTISRDNDKNAVYLRMNSLNAEDTAVYYCGRGRMYRGIGNSLAQPKSYGYWGQGTQVTVSS
notes: as for B1
B7: LCP0095 (VHH)
VHH: EVQLVESGGGLVQAGGSLRLSCTASGRTISTTVMAWFRQAPGKEREFVAADHWGDAGTVYADSVKGRFTISRDNAKNTVYLQMNYLKPEDTSVYYCAARPPTYVGTSRDSRAYDYWGQGTQVTVSS
notes: as for B1
B8: LCP0123 (VHH)
VHH: EVQLVESGGGLVQAGGSLTLSCAMSGGTRPFEDYVMAWFRQATGKEREFVATITWMGETTYYKDSVNGRFAISRDNAENTVALQMNSLEPEDTAVYFCAAHSRSSFSTSGGRYNPRPTEYDYWGQGTQVTVSS
notes: as for B1
B9: CRL0499 (bispecific antibody)
chain: EVQLLESGGGLVQPGGSLRLSCAASGFTFRSFGMSWVRQAPGKGPEWVSSISGSGSDTLYADSVKGRFTISRDNSKNTLYLQMNSLRPEDTAVYYCTIGGSLSRSSQGTLVTVSSGGGGSGGGGSGGGGSEVQLVESGGGLVQPGGSLRLSCAASGRAHSDYAMAWFRQAPGQEREFVAGIGWSGGDTLYADSVRGRFTNSRDNSKNTLYLQMNSLRAEDTAVYYCAARQGQYIYSSMRSDSYDYWGQGTLVTVSS
notes: anti-albumin VHH / (G4S)3 / anti-C5 VHH fusion, purified by Protein A; also called CRL0499 (HSA/C5)
B10: HAS020 (VHH)
VHH: QVQLVESGGGLVQAGGSLRLSCAASGRTFGSDAAGWFRQASGKEREFVASISWSGGYTYYADSVKGRFTISSDNVKNTVYLQMNSLTPEDTAVYFCATGNRYSDYRISLVTPSQYEYWGQGTLVTVSH
notes: anti-albumin VHH-His
B11: HAS081 (VHH)
VHH: B10 VHH with G30S, S50A, G56N, Y60S, T87K, F95L, T98A, L123Q
notes: anti-albumin VHH-His
B12: HAS096 (VHH)
VHH: B10 VHH with I70S, G99V, L123Q
notes: anti-albumin VHH-His
B13: HAS091 (VHH)
VHH: B10 VHH with V64G, K65T, Y102D, L123Q
notes: anti-albumin VHH-His
B14: HAS093 (VHH)
VHH: B10 VHH with V64G, E116D, L123Q
notes: anti-albumin VHH-His
B15: HAS080 (VHH)
VHH: QVRLAESGGGRVQAGESLRLSCVASGRTFSNDAAGWFREASGKEREFVASISWSGNYTYYADSVKGRFTISEDNVKNTVYLQMTSLKPEDTAVYYCAAGNRYSDYRISLVTPRLYEYWGQGTQVTVSH
notes: anti-albumin VHH-His
B16: HAS044 (VHH)
VHH: QVQLVESGGGLVQAGGSLRLSCAASGRTFSSYAIGWFRQAPGKAREFVARVSTIAGDTDYADSVKGRFTISRDNAKNTVYLQMNSLKPEDTAVYYCAADSYNVRLVTGEADYWGEGTQVTVSS
notes: anti-albumin VHH-His
B17: HAS079 (VHH)
VHH: B16 VHH with Q1E, G16D, R27F, S31N, D62N, S63A, E89D, D99E
notes: anti-albumin VHH-His
B18: HAS077 (VHH)
VHH: B16 VHH with V106G
notes: anti-albumin VHH-His
B19: HAS038 (VHH)
VHH: QVQLVESGGGLVQPGGSLRLSCTGSGHSFSTYTVGWFRQAPGEERKFVASISWSGEVTLYGDSVKGRFTISRDNRKKTVYLQMHSLKPEDSAIYYCAAKRGGRPTDSSDDYFYWGQGTQVTVSS
notes: anti-albumin VHH-His

What follows are binders tested against T1, human complement protein C5 (human, UniProt P01031 19-1676) (assay: SPR (Biacore)).
T1 construct: Native C5 is a two-chain protein made from one precursor; also called hC5; human C5

| Kd [nM] | koff [s⁻¹] | kon [M⁻¹ s⁻¹] | Binder |
| --- | --- | --- | --- |
| 0.309 | 3.48e-05 | 113000 | B1 |
| 0.195 | 2.22e-05 | 114000 | B2 |
| 0.082 | 5.66e-05 | 691000 | B3 |
| 0.0435 | 9.75e-05 | 2.24e+06 | B4 |
| 1.81 | 0.000882 | 486000 | B5 |
| 0.417 | 3.9e-05 | 93400 | B6 |
| 2.5 | 0.000714 | 286000 | B7 |
| 1.99 | 0.000216 | 108000 | B8 |

Each binder was assayed against T2, cynomolgus monkey (cyno) complement protein C5 (cynomolgus monkey, UniProt A0A2K5U1T1 19-1676) (assay: SPR (Biacore)).
T2 construct: also called cC5; cyno C5

| Kd [nM] | koff [s⁻¹] | kon [M⁻¹ s⁻¹] | Binder |
| --- | --- | --- | --- |
| 0.107 | 1.02e-05 | 95300 | B1 |
| 0.232 | 2.38e-05 | 103000 | B2 |
| 0.167 | 0.000124 | 741000 | B3 |
| 0.0922 | 0.000244 | 2.64e+06 | B4 |
| 0.318 | 0.000251 | 789000 | B5 |
| 1.55 | 0.000106 | 68400 | B6 |
| 3.69 | 0.00168 | 456000 | B7 |
| 3.8 | 0.000381 | 100000 | B8 |

These binders were tested against T1, human complement protein C5 (assay: SPR (Biacore), pH 6.0).

| Kd [nM] | koff [s⁻¹] | kon [M⁻¹ s⁻¹] | Binder |
| --- | --- | --- | --- |
| 0.448 | 0.00112 | 2.51e+06 | B9 |

Each binder was assayed against T2, cynomolgus monkey (cyno) complement … (assay: SPR (Biacore), pH 6.0).

| Kd [nM] | koff [s⁻¹] | kon [M⁻¹ s⁻¹] | Binder |
| --- | --- | --- | --- |
| 2.02 | 0.00388 | 1.92e+06 | B9 |

What follows are binders tested against T1, human complement protein C5 (assay: SPR (Biacore), pH 7.4).

| Kd [nM] | koff [s⁻¹] | kon [M⁻¹ s⁻¹] | Binder |
| --- | --- | --- | --- |
| 0.15 | 0.000332 | 2.22e+06 | B9 |

These binders were tested against T3, human serum albumin (human, UniProt P02768 25-609) (assay: BLI (Octet HTX), VHH-His on Penta-His sensors, 100 nM albumin).
T3 construct: also called HSA; human albumin
Excerpt: VHH sequences were first analyzed by SDS-PAGE and Coomassie staining to determine approximate concentration relative to a known standard. Supernatant concentrations were then normalized and subjected to biolayer interferometry on an Octet HTX (Pall/ForteBio). Penta-His sensors were exposed to kinetics buffer for 60 seconds to establish baseline measurements. The sensors were then loaded with VHH-His containing supernatants for 300 seconds before a second baseline was established in kinetics buffer over 120 seconds. Tips were then incubated with 100 nM HSA or CSA in kinetics buffer for 600 seconds and dissociation measured over an additional 600 seconds.

| binding result | Binder |
| --- | --- |
| binds | B10 |
| binds | B11 |
| binds | B12 |
| binds | B13 |
| binds | B14 |
| binds | B15 |
| binds | B16 |
| binds | B17 |
| binds | B18 |
| binds | B19 |
